Experiment [1] concerns the target T1, NaPi2b (SLC34A2, type II sodium-dependent phosphate transporter 3b) (human, UniProt O95436 1-690).
T1 sequence (looked up): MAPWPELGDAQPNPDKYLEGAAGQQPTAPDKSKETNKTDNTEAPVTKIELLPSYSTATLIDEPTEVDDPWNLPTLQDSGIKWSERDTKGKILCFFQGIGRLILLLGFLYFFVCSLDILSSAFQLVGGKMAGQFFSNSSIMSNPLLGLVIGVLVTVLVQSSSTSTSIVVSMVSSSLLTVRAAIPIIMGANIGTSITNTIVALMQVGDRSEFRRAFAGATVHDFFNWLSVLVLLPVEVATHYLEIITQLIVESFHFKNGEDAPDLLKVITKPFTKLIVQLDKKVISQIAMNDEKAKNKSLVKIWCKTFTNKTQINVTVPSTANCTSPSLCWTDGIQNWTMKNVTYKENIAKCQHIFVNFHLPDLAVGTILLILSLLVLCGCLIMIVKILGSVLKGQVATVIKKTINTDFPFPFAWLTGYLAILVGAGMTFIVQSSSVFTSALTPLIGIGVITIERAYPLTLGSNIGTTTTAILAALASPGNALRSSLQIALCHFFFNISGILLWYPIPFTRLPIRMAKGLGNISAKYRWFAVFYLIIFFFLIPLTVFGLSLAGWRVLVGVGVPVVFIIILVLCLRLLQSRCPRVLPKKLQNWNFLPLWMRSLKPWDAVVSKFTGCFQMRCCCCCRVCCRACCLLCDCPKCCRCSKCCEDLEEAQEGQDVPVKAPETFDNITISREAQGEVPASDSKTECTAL
Nature of the experiment: cell-based or functional assay.

Experiment [2] concerns the target T1, NaPi2b (SLC34A2, type II …). The experiment in a line: cell-based or functional assay. This is another data set of the same source.

Values joined by “and” are separate entries in the source; they are usually repeats but may differ in a detail not shown here. Equal values may be shown once. Read-outs that look alike come from different tables or passages of the source.

B1: Anti-Napi2b 10H1.11.4B LC K149C MC-Sq-Cit-PAB-Tubulysin M (antibody, DAR 1, V domains shown)
VH: EVQLVESGGGLVQPGGSLRLSCAASGFSFSDFAMSWVRQAPGKGLEWVATIGRVAFHTYYPDSMKGRFTISRDNSKNTLYLQMNSLRAEDTAVYYCARHRGFDVGHFDFWGQGTLVTVSS
VL: DIQMTQSPSSLSASVGDRVTITCRSSETLVHSSGNTYLEWYQQKPGKAPKLLIYRVSNRFSGVPSRFSGSGSGTDFTLTISSLQPEDFATYYCFQGSFNPLTFGQGTKVEIKR
With B1, in experiment [1], the “IGROV-1 IC50 (EdU Prolif assay)” value is 2.07 nM and 310 ng/mL; the “OVCAR-3x2.1 IC50 (EdU Prolif assay)” value is 151 ng/mL and 1 nM.

B2: Anti-Napi2b 10H1.11.4B LC K149C MC-Sq-Cit-PAB Dolastatin 10 (antibody, DAR 1, V domains shown)
VH: B1 VH
VL: B1 VL
As to B2, in experiment [2], the “IGROV-1 IC50 (EdU Prolif assay)” value was 3.19 nM and 478 ng/mL; the “OVCAR-3x2.1 IC50 (EdU Prolif assay)” value is 1.52 nM and 228 ng/mL.

The values above are taken from patent US20200087297A1 (Genentech, published 2020).
